Data set [1] concerns the target T1, C1-inhibitor, P05155.
T1 chain: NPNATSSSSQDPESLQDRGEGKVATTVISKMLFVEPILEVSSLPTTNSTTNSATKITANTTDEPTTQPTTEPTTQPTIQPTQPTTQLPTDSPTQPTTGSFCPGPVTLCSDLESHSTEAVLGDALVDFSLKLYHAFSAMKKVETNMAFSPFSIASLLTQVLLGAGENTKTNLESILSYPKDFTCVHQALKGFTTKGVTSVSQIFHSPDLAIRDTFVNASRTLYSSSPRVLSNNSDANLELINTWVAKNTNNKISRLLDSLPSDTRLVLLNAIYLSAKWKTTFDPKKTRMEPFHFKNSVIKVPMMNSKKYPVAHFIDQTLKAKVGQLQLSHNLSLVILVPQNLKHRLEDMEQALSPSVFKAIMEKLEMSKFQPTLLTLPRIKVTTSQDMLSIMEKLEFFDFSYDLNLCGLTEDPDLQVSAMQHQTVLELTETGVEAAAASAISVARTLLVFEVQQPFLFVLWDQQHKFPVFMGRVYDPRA
Kind of data set: SDS-stable complex formation of 125I-labelled MASP fragment with C1-inhibitor, reducing SDS-PAGE, autoradiography and densitometry.

Data set [2] deals with 'dead' C3(NH3), P01024.
Data set [3] concerns the target 'live' C3 (C3 with an intact thiol ester bond), P01024.
For data set [4], the target named is Human C4, P0C0L4.
The target in data set [5] is T2, P1 Arg oligopeptide of the competing oligopeptide substrate library.
T2 chain: HAAPRSANIQIAI

Data set [6] deals with T3, P1 Lys oligopeptide of the competing oligopeptide substrate library.
T3 chain: HAAPKSANIQIAI

In data set [7] the target is T4, alpha-2-macroglobulin, P01023.
T4 chain: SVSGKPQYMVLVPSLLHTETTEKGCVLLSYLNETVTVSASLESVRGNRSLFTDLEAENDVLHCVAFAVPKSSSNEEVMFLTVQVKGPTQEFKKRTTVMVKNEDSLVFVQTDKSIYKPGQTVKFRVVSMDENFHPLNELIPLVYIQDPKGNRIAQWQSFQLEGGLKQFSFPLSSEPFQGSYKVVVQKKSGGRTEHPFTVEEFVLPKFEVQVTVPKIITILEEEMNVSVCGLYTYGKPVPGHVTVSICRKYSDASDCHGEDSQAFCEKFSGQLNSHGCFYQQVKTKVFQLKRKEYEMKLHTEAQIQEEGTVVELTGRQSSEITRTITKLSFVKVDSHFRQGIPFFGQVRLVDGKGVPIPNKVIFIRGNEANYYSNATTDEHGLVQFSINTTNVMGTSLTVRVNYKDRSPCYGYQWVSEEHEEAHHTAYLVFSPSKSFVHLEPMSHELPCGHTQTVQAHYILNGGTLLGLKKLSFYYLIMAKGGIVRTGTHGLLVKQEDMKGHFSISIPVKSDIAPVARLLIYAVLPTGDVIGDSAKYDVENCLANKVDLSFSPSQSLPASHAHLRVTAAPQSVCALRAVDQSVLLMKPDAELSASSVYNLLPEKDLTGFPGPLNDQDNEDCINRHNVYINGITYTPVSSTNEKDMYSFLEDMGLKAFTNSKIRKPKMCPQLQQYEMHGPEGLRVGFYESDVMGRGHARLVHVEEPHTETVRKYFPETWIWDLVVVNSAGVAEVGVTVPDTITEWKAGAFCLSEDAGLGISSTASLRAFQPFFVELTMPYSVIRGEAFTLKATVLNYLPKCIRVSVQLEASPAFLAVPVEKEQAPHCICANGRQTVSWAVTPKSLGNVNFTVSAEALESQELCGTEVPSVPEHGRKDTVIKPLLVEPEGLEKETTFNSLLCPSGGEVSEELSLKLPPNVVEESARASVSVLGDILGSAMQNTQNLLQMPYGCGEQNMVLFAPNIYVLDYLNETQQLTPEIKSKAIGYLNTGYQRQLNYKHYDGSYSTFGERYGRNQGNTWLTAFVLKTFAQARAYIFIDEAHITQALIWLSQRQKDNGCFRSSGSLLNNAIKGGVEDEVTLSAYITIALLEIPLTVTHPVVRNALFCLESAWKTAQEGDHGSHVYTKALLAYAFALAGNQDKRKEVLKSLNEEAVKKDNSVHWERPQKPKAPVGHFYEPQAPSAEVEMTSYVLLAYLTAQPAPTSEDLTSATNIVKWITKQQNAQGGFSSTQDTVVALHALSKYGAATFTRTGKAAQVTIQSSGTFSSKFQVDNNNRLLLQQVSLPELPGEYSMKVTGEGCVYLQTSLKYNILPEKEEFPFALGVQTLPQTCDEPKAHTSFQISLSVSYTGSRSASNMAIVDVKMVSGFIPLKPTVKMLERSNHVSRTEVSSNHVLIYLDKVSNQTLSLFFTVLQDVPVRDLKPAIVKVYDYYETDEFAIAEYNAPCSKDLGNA

Data set [8] concerns the target T5, Human C2, P06681.
T5 chain: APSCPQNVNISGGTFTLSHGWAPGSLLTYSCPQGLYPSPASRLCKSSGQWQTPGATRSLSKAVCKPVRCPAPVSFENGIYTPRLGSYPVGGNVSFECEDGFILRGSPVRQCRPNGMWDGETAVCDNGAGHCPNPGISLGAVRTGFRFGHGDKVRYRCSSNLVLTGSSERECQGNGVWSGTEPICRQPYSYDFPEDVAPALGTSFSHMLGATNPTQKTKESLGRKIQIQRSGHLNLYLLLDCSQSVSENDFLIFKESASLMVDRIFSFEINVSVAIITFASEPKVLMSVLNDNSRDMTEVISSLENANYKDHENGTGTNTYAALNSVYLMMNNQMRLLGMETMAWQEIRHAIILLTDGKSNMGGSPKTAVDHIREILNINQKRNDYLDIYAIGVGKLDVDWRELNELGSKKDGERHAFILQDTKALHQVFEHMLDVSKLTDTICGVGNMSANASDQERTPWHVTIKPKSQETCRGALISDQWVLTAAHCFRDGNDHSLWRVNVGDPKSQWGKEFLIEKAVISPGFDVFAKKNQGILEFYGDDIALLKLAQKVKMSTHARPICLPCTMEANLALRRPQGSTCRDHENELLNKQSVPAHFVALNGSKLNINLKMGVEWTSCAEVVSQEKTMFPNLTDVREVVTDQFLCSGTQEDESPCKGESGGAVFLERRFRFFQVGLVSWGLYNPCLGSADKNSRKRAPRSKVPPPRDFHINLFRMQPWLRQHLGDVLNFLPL

For data set [9], the target named is T6, C1r CCP2-SP S654A, P00736.
T6 chain: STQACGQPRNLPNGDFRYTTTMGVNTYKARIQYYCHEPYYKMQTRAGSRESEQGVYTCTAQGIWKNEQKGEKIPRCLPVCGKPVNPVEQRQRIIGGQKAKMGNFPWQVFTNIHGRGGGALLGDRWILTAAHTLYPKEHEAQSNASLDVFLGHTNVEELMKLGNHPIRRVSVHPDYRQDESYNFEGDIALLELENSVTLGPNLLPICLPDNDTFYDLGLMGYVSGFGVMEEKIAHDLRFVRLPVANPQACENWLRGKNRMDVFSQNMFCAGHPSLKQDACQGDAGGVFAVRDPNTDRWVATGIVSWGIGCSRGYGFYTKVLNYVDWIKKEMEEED

Data set [10] has as its target T7, C1r SP S654A, P00736.
T7 chain: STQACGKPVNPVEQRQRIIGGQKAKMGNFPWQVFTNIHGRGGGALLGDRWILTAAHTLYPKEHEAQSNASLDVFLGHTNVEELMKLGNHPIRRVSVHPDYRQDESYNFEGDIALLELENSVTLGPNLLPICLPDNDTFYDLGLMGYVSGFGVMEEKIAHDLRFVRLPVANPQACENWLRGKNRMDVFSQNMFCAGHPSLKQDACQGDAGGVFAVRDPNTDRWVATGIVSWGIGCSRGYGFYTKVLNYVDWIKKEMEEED

Data set [11] deals with T8, C1r CCP1-CCP2-SP S654A, P00736.
T8 chain: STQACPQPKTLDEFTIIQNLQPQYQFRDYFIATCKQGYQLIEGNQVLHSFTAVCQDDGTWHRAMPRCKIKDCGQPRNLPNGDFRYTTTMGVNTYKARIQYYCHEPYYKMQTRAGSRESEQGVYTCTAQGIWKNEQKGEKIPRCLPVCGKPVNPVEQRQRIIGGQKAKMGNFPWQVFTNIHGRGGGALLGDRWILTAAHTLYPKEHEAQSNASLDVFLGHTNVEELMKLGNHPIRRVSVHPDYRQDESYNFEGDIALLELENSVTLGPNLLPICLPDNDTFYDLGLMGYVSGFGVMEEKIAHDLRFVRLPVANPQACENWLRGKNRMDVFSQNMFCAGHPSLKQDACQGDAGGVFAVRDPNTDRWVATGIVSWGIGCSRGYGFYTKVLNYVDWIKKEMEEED

In data set [12] the target is T9, Proenzyme C1s, P09871.
T9 chain: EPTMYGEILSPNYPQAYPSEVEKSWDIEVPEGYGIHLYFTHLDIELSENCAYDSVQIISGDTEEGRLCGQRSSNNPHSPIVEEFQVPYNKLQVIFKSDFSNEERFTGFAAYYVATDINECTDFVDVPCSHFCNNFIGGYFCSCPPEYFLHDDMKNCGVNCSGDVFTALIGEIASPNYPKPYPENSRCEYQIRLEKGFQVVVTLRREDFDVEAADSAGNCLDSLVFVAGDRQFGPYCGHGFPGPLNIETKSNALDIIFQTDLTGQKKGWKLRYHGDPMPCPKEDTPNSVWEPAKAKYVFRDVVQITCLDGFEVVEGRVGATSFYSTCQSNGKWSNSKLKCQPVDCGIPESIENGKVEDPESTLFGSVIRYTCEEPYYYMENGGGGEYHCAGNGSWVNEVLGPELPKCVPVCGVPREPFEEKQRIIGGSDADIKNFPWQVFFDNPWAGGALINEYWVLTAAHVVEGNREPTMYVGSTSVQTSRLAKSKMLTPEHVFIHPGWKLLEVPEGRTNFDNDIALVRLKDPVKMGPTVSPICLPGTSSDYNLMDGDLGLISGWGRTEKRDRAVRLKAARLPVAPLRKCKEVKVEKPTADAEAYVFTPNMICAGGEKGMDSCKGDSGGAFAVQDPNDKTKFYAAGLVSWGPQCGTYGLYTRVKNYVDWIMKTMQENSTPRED

Chain of Human C4, P0C0L4 (P0C0L4 whole entry, looked up): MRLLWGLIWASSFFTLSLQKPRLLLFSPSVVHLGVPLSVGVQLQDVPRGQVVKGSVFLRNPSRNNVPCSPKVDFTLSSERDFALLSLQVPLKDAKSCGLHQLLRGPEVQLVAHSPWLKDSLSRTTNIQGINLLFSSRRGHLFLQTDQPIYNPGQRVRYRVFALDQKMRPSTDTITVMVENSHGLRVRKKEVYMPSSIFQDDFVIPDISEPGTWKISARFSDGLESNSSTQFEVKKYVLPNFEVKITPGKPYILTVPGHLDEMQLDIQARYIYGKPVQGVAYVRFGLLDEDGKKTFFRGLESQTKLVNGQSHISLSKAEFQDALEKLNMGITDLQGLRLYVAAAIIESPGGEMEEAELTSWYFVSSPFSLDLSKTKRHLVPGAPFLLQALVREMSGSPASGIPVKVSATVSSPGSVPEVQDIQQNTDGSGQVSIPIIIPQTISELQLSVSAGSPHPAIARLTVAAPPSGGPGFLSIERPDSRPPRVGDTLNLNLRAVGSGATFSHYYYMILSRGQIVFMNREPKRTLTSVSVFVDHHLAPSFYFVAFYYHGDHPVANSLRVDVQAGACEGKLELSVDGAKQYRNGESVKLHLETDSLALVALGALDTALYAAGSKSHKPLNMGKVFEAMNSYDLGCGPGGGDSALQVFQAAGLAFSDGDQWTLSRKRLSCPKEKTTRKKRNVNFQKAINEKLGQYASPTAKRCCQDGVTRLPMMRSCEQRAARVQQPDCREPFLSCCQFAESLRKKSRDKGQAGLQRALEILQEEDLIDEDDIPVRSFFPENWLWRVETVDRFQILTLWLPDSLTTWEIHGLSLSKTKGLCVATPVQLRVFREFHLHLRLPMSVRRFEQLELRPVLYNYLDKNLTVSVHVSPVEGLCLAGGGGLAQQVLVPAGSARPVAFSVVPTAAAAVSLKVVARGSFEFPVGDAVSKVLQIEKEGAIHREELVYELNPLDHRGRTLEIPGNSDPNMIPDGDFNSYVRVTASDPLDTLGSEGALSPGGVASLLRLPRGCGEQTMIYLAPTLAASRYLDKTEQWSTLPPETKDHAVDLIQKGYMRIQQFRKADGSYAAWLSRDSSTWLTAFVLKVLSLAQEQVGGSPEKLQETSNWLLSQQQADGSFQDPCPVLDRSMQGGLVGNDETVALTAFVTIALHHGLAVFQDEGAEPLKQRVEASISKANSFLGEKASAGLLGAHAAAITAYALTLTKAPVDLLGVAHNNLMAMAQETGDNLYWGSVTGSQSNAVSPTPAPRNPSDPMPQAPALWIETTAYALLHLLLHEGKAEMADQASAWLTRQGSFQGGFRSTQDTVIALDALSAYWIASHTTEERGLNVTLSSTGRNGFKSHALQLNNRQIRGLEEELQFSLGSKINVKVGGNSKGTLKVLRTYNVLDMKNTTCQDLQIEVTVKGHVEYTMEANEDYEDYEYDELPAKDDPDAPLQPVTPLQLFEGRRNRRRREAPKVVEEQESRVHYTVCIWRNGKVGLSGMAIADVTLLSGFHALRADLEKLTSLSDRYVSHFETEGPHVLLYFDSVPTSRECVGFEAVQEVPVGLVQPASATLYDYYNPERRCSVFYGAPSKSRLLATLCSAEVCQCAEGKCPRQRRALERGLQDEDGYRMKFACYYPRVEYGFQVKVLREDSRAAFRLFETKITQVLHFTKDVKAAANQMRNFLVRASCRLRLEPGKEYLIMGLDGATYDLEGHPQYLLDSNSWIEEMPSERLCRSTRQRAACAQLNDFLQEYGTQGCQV
Chain of 'dead' C3(NH3), P01024 (P01024 whole entry, looked up): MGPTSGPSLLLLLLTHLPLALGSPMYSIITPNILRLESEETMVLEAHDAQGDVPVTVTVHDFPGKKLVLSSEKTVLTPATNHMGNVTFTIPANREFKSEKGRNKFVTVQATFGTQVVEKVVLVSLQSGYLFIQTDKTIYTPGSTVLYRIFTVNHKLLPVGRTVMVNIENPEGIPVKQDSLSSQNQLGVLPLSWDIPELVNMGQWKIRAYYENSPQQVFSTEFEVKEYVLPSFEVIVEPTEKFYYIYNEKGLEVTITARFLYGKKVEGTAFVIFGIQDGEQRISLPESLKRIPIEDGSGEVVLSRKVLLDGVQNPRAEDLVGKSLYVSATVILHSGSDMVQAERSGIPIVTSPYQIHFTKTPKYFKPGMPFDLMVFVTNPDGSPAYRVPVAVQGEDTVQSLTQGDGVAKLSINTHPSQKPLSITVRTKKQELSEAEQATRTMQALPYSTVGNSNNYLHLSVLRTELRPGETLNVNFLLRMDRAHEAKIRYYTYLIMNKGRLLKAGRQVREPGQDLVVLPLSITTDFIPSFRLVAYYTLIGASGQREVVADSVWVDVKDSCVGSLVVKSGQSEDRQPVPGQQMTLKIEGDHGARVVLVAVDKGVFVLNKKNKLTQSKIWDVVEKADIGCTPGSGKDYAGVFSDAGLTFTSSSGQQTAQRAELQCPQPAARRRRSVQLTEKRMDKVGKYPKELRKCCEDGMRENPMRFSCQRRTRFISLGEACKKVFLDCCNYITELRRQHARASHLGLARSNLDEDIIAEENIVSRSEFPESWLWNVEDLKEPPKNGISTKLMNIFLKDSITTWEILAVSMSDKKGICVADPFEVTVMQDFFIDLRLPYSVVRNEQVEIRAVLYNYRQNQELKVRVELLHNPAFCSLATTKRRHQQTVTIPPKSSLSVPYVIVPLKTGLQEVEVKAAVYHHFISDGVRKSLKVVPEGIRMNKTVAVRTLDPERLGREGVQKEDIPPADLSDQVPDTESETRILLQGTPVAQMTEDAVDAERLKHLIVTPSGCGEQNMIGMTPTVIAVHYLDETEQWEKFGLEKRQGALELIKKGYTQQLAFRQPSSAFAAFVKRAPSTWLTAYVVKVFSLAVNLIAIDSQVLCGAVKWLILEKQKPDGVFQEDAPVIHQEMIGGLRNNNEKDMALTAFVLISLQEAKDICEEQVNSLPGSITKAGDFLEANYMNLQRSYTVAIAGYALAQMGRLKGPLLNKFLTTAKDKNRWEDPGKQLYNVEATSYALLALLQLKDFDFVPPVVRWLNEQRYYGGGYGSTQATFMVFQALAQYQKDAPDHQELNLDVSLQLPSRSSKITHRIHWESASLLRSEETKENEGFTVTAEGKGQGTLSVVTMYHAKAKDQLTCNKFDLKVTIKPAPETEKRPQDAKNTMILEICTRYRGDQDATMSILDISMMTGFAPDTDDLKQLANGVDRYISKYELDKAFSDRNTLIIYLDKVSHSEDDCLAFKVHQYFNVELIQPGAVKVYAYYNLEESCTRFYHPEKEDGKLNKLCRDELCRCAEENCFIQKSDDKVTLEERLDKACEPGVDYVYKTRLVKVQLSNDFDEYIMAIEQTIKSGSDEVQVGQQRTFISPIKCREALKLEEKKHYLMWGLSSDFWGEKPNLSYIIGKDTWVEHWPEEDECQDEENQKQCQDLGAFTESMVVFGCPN
Chain of 'live' C3 (C3 with an intact thiol ester bond), P01024 (P01024 whole entry, looked up): as above

B1: MASP-2 CCP1-CCP2-SP fragment (protein)
chain 1: IHYTSTAQPCPYPMAPPNGHVSPVQAKYILKDSFSIFCETGYELLQGHLPLKSFTAVCQKDGSWDRPMPACSIVDCGPPDDLPSGRVEYITGPGVTTYKAVIQYSCEETFYTMKVNDGKYVCEADGFWTSSKGEKSLPVCEPVCGLSARTTGGR
chain 2: IYGGQKAKPGDFPWQVLILGGTTAAGALLYDNWVLTAAHAVYEQKHDASALDIRMGTLKRLSPHYTQAWSEAVFIHEGYTHDAGFDNDIALIKLNNKVVINSNITPICLPRKEAESFMRTDDIGTASGWGLTQRGFLARNLMYVDIPIVDHQKCTAAYEKPPYPRGSVTANMLCAGLESGGKDSCRGDSGGALVFLDSETERWFVGGIVSWGSMNCGEAGQYGVYTKVINYIPWIENIISDF
B1 displayed a kobs (pseudo-first order rate of reaction at [C1-inh] = 350 nM) in data set [1] of 0.0078 s⁻¹. In addition, the kcat/KM, cleavage of C3(NH3) in data set [2] amounted to 3300 M⁻¹ s⁻¹. Further, the kcat/KM, cleavage of live C3 in [3] was determined as 350 M⁻¹ s⁻¹. For the same protein, in data set [4], the KM, C4 cleavage is 1.6 µM; the kcat, C4 cleavage came out at 0.9 s⁻¹; the kcat/KM, C4 cleavage came to 550000 M⁻¹ s⁻¹. Moreover, in [5], the “cleavage in the competing oligopeptide substrate library” value is “both enzymes cleave oligopeptides that contain either Arg or Lys at their P1 positions” and the “digestion of the P1 Arg oligopeptide at 15 min” value is on record as “MASP-2 cleaved less than 20% of the substrate”. Further, the “cleavage in the competing oligopeptide substrate library” value in data set [6] was “both enzymes cleave oligopeptides that contain either Arg or Lys at their P1 positions”. Moreover, the “molar excess needed to abolish cleavage of complement substrates” value in [7] is recorded as “or with a large molar excess (40 fold) of alpha-2-macroglobulin”. For the same protein, in data set [8], the KM, C2 cleavage was determined as 4 µM; the kcat, C2 cleavage was determined as 1.9 s⁻¹; the kcat/KM, C2 cleavage was found to be 500000 M⁻¹ s⁻¹.

B2: C1r CCP1-CCP2-SP fragment (wild-type) (protein)
chain 1: STQACPQPKTLDEFTIIQNLQPQYQFRDYFIATCKQGYQLIEGNQVLHSFTAVCQDDGTWHRAMPRCKIKDCGQPRNLPNGDFRYTTTMGVNTYKARIQYYCHEPYYKMQTRAGSRESEQGVYTCTAQGIWKNEQKGEKIPRCLPVCGKPVNPVEQRQR
chain 2: IIGGQKAKMGNFPWQVFTNIHGRGGGALLGDRWILTAAHTLYPKEHEAQSNASLDVFLGHTNVEELMKLGNHPIRRVSVHPDYRQDESYNFEGDIALLELENSVTLGPNLLPICLPDNDTFYDLGLMGYVSGFGVMEEKIAHDLRFVRLPVANPQACENWLRGKNRMDVFSQNMFCAGHPSLKQDACQGDSGGVFAVRDPNTDRWVATGIVSWGIGCSRGYGFYTKVLNYVDWIKKEMEEED
As for B2, the “cleavage of 'dead' C3 (control)” value in data set [2] was “we observed no cleavages of either 'live' or 'dead' C3”. The “cleavage of 'live' C3 (control)” value in data set [3] is reported as “we observed no cleavages of either 'live' or 'dead' C3”. Besides, the kcat/KM, cleavage of S654A zymogen in data set [9] worked out at 15900 s^-1M^-1; in [10], 45000 s^-1M^-1; in data set [11], 6200 s^-1M^-1. Moreover, the kcat/KM, C1s cleavage in [12] amounted to 58000 s^-1M^-1.

Source of the values: US20090042248.
